Results: patent US6545131

Key:
[1] = tested on: Mu-SKLQ-AMC (Ser-Lys-Leu-Gln; SEQ ID NO:1)
[2] = tested on: Mu-HSSKLQ-AMC (His-Ser-Ser-Lys-Leu-Gln; SEQ ID NO:7)
[3] = tested on: Mu-EHSSKLQ-AMC (Glu-His-Ser-Ser-Lys-Leu-Gln; SEQ ID NO:10)
[4] = tested on: Mu-ATKSKQH-AMC (Ala-Thr-Lys-Ser-Lys-Gln-His; SEQ ID NO:13)
[5] = tested on: Mu-ENKISYQ-AMC (Glu-Asn-Lys-Ile-Ser-Tyr-Gln; SEQ ID NO:12)
[6] = tested on: Mu-QNKISYQ-AMC (Gln-Asn-Lys-Ile-Ser-Tyr-Gln; SEQ ID NO:11)
[7] = tested on: Mu-SKLQ-AMC (Ser-Lys-Leu-Gln; SEQ ID NO:1); assay: fluorogenic AMC-release kinetics, Lineweaver-Burke plot
[8] = tested on: Mu-ATKSKQH-AMC (Ala-Thr-Lys-Ser-Lys-Gln-His; SEQ ID NO:13); assay: as above
[9] = tested on: Mu-HSSKLQ-AMC (His-Ser-Ser-Lys-Leu-Gln; SEQ ID NO:7); assay: as above
[10] = tested on: Mu-EHSSKLQ-AMC (Glu-His-Ser-Ser-Lys-Leu-Gln; SEQ ID NO:10); assay: as above

Sequence of tissue plasminogen activator (TPA) (P00750 36-562): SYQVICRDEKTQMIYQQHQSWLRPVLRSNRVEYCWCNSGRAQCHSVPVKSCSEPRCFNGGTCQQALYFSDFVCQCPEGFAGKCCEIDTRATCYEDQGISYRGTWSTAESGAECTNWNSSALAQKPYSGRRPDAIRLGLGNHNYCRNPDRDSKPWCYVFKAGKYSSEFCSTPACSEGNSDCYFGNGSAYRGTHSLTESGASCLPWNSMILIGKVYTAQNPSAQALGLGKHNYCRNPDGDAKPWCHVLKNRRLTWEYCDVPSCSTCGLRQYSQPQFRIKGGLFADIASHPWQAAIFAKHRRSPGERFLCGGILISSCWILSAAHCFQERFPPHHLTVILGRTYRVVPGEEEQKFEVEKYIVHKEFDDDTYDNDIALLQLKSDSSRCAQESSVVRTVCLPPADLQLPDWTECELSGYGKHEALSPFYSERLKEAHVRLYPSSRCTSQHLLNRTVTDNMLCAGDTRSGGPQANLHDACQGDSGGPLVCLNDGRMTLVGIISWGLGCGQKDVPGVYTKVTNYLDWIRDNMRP
Sequence of plasmin (P00747 20-580): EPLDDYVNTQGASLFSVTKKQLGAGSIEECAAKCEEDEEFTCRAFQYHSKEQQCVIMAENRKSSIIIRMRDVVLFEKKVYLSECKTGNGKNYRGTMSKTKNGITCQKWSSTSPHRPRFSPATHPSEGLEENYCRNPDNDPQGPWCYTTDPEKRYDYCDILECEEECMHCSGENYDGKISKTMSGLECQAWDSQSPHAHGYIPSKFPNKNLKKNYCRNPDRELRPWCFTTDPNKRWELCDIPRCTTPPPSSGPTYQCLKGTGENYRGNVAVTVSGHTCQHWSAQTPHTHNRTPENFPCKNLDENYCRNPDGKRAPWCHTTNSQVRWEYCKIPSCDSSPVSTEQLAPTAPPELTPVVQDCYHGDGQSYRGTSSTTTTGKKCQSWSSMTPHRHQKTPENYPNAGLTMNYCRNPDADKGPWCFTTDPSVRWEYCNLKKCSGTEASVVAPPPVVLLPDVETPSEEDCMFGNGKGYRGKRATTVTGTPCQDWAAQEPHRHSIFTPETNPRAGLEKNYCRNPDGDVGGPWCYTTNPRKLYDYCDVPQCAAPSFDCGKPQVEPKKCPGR
Sequence of plasmin (P00747 581-810): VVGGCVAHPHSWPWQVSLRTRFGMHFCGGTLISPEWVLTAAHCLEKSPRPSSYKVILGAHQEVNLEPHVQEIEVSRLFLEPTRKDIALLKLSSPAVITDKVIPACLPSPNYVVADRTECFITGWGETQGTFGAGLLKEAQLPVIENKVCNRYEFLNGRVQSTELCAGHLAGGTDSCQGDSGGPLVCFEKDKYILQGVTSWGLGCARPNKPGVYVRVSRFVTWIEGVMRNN

## Cathepsin B
[1]
  peptide cleavage rate (AMC release) (pmol/min/200 pmol protease): 31.2
Mu-KLQ-AMC
  peptide cleavage rate (AMC release) (pmol/min/200 pmol protease): 87
Mu-LQ-AMC
  peptide cleavage rate (AMC release) (pmol/min/200 pmol protease): 190
[2]
  peptide cleavage rate (AMC release) (pmol/min/200 pmol protease): 17.3
[3]
  peptide cleavage rate (AMC release) (pmol/min/200 pmol protease): 4.3

## Cathepsin C
[1]
  peptide cleavage rate (AMC release) (pmol/min/200 pmol protease): < 0.1
Mu-KLQ-AMC
  peptide cleavage rate (AMC release) (pmol/min/200 pmol protease): < 0.1
Mu-LQ-AMC
  peptide cleavage rate (AMC release) (pmol/min/200 pmol protease): < 0.1
[2]
  peptide cleavage rate (AMC release) (pmol/min/200 pmol protease): < 0.1
[3]
  peptide cleavage rate (AMC release) (pmol/min/200 pmol protease): < 0.1

## Cathepsin D
[1]
  peptide cleavage rate (AMC release) (pmol/min/200 pmol protease): 6.4
Mu-LQ-AMC
  peptide cleavage rate (AMC release) (pmol/min/200 pmol protease): 20
[2]
  peptide cleavage rate (AMC release) (pmol/min/200 pmol protease): 3.8
[3]
  peptide cleavage rate (AMC release) (pmol/min/200 pmol protease): 2.2

## chymotrypsin
[4]
  substrate cleavage rate (AMC release) (pmol/min/200 pmol protease): 38.8
[3]
  substrate cleavage rate (AMC release) (pmol/min/200 pmol protease): < 0.1
[5]
  substrate cleavage rate (AMC release) (pmol/min/200 pmol protease): 3.6
[6]
  substrate cleavage rate (AMC release) (pmol/min/200 pmol protease): 9

## elastase
[4]
  substrate cleavage rate (AMC release) (pmol/min/200 pmol protease): < 0.1
[3]
  substrate cleavage rate (AMC release) (pmol/min/200 pmol protease): < 0.1
[5]
  substrate cleavage rate (AMC release) (pmol/min/200 pmol protease): 2.6
[6]
  substrate cleavage rate (AMC release) (pmol/min/200 pmol protease): 9

## human kallikrein, hK1
[4]
  substrate cleavage rate (AMC release) (pmol/min/200 pmol protease): < 0.1
[3]
  substrate cleavage rate (AMC release) (pmol/min/200 pmol protease): < 0.1
[5]
  substrate cleavage rate (AMC release) (pmol/min/200 pmol protease): < 0.1

## plasmin
[4]
  substrate cleavage rate (AMC release) (pmol/min/200 pmol protease): < 0.1
[3]
  substrate cleavage rate (AMC release) (pmol/min/200 pmol protease): < 0.1
[5]
  substrate cleavage rate (AMC release) (pmol/min/200 pmol protease): 0.6
[6]
  substrate cleavage rate (AMC release) (pmol/min/200 pmol protease): < 0.1

## porcine liver esterase
[1]
  peptide cleavage rate (AMC release) (pmol/min/200 pmol protease): < 0.1
Mu-KLQ-AMC
  peptide cleavage rate (AMC release) (pmol/min/200 pmol protease): < 0.1
Mu-LQ-AMC
  peptide cleavage rate (AMC release) (pmol/min/200 pmol protease): < 0.1
[2]
  peptide cleavage rate (AMC release) (pmol/min/200 pmol protease): < 0.1
[3]
  peptide cleavage rate (AMC release) (pmol/min/200 pmol protease): < 0.1

## prostate specific antigen (PSA)
[1]
  Kcat: 0.02 s⁻¹
  Kcat/Km: 24.6 s^-1M^-1
  peptide cleavage rate (AMC release) (pmol/min/200 pmol protease): 29.6
Mu-KLQ-AMC
  peptide cleavage rate (AMC release) (pmol/min/200 pmol protease): 0.4
Mu-LQ-AMC
  peptide cleavage rate (AMC release) (pmol/min/200 pmol protease): < 0.1
[4]
  Kcat: 0.0091 s⁻¹
  Kcat/Km: 6.9 s^-1M^-1
  substrate cleavage rate (AMC release) (pmol/min/200 pmol protease): 16
[2]
  Kcat: 0.011 s⁻¹
  Kcat/Km: 23.6 s^-1M^-1
  peptide cleavage rate (AMC release) (pmol/min/200 pmol protease): 62.7
[3]
  Kcat: 0.02 s⁻¹
  Kcat/Km: 10.6 s^-1M^-1
  peptide cleavage rate (AMC release) (pmol/min/200 pmol protease): 31.6
  substrate cleavage rate (AMC release) (pmol/min/200 pmol protease): 31.6
[5]
  substrate cleavage rate (AMC release) (pmol/min/200 pmol protease): 14.4
[6]
  substrate cleavage rate (AMC release) (pmol/min/200 pmol protease): 16.8
[7]
  Km: 813 µM
[8]
  Km: 310 µM
[9]
  Km: 470 µM
[10]
  Km: 1160 µM

## thrombin
[4]
  substrate cleavage rate (AMC release) (pmol/min/200 pmol protease): 0.2
[3]
  substrate cleavage rate (AMC release) (pmol/min/200 pmol protease): < 0.1
[5]
  substrate cleavage rate (AMC release) (pmol/min/200 pmol protease): 0.3
[6]
  substrate cleavage rate (AMC release) (pmol/min/200 pmol protease): 0.4

## tissue plasminogen activator (TPA)
[4]
  substrate cleavage rate (AMC release) (pmol/min/200 pmol protease): < 0.1
[3]
  substrate cleavage rate (AMC release) (pmol/min/200 pmol protease): < 0.1
[5]
  substrate cleavage rate (AMC release) (pmol/min/200 pmol protease): 0.04
[6]
  substrate cleavage rate (AMC release) (pmol/min/200 pmol protease): 0.4

## urokinase
[4]
  substrate cleavage rate (AMC release) (pmol/min/200 pmol protease): < 0.1
[3]
  substrate cleavage rate (AMC release) (pmol/min/200 pmol protease): < 0.1
[5]
  substrate cleavage rate (AMC release) (pmol/min/200 pmol protease): < 0.1
